± gives the half width of the 95% confidence interval.
Key:
[1] = folding stability dG unfold from trypsin proteolysis; higher = more stable
How it was run: (§1)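 Unfolding free energy was derived, per protease or combined, by relating Bayesian-fitted K50 values from sequencing counts to a sequence-predicted unfolded-state K50 and a shared folded-state K50. The underlying digests exposed cysteine-free mini-proteins under 80 residues, in a PA-tagged cDNA display construct, to trypsin and chymotrypsin at 11 threefold-diluted concentrations and to a no-protease condition. A filter kept only designs with AlphaFold2 dimer inter-PAE above 15.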

[2] = folding stability dG unfold from chymotrypsin proteolysis; higher = more stable
How it was run: as §1

[3] = folding stability dG unfold (combined trypsin and chymotrypsin); higher = more stable
How it was run: as §1

Sequence	folding stability dG unfold [1] [kcal/mol]	folding stability dG unfold [2] [kcal/mol]	folding stability dG unfold [3] [kcal/mol]
SAGGSMTLEELKNMTVEELRELLGEDAEVTVDEETGTITIRVPGKEVTIEVDEETGEVKIVEVKPVSAGGSA [r2_470_TrROS_Hall]	3.31 ± 0.24	2.27 ± 0.13	2.89 ± 0.26
SAGGSMTTPPTGEVQVFIDRKTDKWTIRIVDPNAPPTTEEVESEEEAEKVIAELEAKGYKVDTVEPLPSAGG [r13_727_JUSTAS]	0.658 ± 0.16	1.14 ± 0.5	0.913 ± 0.29
SAGGSMVIPTKVSSLEEAKQVAEEILKKLGRPLTLDDVSFDPEKFKAELKPDTPVVVKVKDPSGVTLGASAG [r5_503_JUSTAS]	0.457 ± 0.032	0.458 ± 0.15	0.409 ± 0.16
SAGGSMVKVEVHYDPERDLVLVTVEAPDDPELVDEFVERMKKLGAKRVEVFRFPEDGKVRILVEIGSAGGSA [r2_358_TrMRF]	3.08 ± 0.11	4.68 ± 0.081	4.36 ± 0.1
SAGGSNVEVERHPDGHMTFTFPDEDGKDVKITIHMHPDGMYMIRVPGNNQPIYFPPGQSIEDLLKLSAGGSA [r2_338_TrROS]	2.2 ± 0.069	2.88 ± 0.032	2.63 ± 0.098
SAGGSPDEAVPLPVPAKITLPGGAEFTVEEAVVLPNGEVLVKATLISPYPDPREAPFVVPLELLDISSAGGS [r16_498_TrMRF]	-0.338 ± 0.054	0.395 ± 0.03	0.235 ± 0.066
SAGGSPKAREERFEKTLPDGTVVPVTLTRLPDGTVRVETTTYTYNSPEPVASTSTTTLPEAEVAAALSAGGS [r16_470_JUSTAS]	0.631 ± 0.099	0.684 ± 0.11	0.686 ± 0.086
SAGGSPKPVPVTITSVTSTSVEVYLPSTGATFTFNLNEEKTLTLPDGSKIYFTFNSDGSVTATVIEYGSAGG [r13_352_TrMRF]	5.03 ± 0.73	4.88 ± 0.051	4.83 ± 0.12
SAGGSPLVLTSEVEKKFENSPDKTVEKYKIKVTVYDPKTGKKLKEIELEKTVEKGGNEKIEEPIILSAGGSA [r2_271_JUSTAS]	0.146 ± 0.084	0.487 ± 0.21	0.419 ± 0.16
SAGGSPNYKINVEVEEYEPNPDNGKPYYRARIKIEWYNPENGREQTREIDFWMSPDKAEKFLKDILSAGGSA [r2_357_TrROS]	1.89 ± 0.059	2.56 ± 0.13	2.22 ± 0.17
SAGGSPPFRIKIDEIEILPNGIIQVTFKIDNGWPMTILIQMDPDGKVTIEIQFPGNGQPFEFELPISAGGSA [r2_361_TrROS]	2.56 ± 0.14	3.52 ± 0.07	3.27 ± 0.23
SAGGSPPLPLKITKITDTRYERNPDGQGWVKIEIRLPENGKPITIPVQADSPEQAEYAVKEALKKFSAGGSA [r2_248_TrROS]	-0.315 ± 0.16	-0.424 ± 0.56	-0.31 ± 0.36
SAGGSPSMSPEELAKREKERILEELRKKGGSKTIPMKVEITVPDEKGNTTKYNIEINITVEVPEDKLSAGGS [r16_550_JUSTAS]	0.622 ± 0.082	1.31 ± 0.1	0.974 ± 0.15
SAGGSPVLKVEVFELEEDKLLLKIYFPKEEAGLTPEQKEALAKAIQELFPNTKAFTTDEELYIVVDSAGGSA [r2_256_TrMRF]	2.06 ± 0.075	2.38 ± 0.15	2.37 ± 0.12
SAGGSPVVLTKSPDGLLYVVTLTDPANSLDRVKAKVTAYDPNKPVPLGELTIELDPKTGKAVSALSSAGGSA [r2_324_JUSTAS]	-0.543 ± 0.097	0.488 ± 0.089	0.21 ± 0.093
SAGGSPWIFVIKIEWEPRDPDGKKKKYEYSIVITATPNQLDELLEQIKKAPPGYKIKEVKIEVFPFSAGGSA [r2_75_TrROS]	2.65 ± 0.18	4.21 ± 0.086	3.82 ± 0.21
SAGGSQLDEYRKKVEEAIEKAKAEGKPVEKIELTGSEEVAKEVREWLEEQGIPKSVKVTVTPPAINESAGGS [r16_164_JUSTAS]	0.433 ± 0.04	1.13 ± 0.015	0.83 ± 0.077
SAGGSSESKTVTAPDGRVLEFTKSLDPTSSNSRYTLTVYAPESGEPLREAEFSSEEEAEKYIAEGLGSAGGS [r8_450_JUSTAS]	-0.0113 ± 0.067	0.487 ± 0.072	0.331 ± 0.068

Sequence	folding stability dG unfold [1] [kcal/mol]	folding stability dG unfold [2] [kcal/mol]	folding stability dG unfold [3] [kcal/mol]
SAGGSSFTGTVTPVKVDPVNPDLVTVATTLTWPDGTTVPLTRTIPRSVYDSLPENISISVTLSPPSSAGGSA [r2_128_JUSTAS]	-0.0475 ± 0.15	1.33 ± 0.1	0.942 ± 0.1
SAGGSSGSMSPVLSLFEPGTGVVTYLLKKNDKLYLLVSTGSPGVPPVPSSVSPANLAAGDPVWATAGSAGGS [r16_809_JUSTAS]	-0.924 ± 0.26	0.77 ± 0.13	0.353 ± 0.1
SAGGSSIKVTITDKNGNEYEIEIPSSLSLEEAKEKVKEYLEKKGYKVESITVENLPPGEAEIKVLKSAGGSA [r2_148_JUSTAS]	0.0509 ± 0.059	0.465 ± 0.21	0.423 ± 0.29
SAGGSSITVPYPEGYEITVEVFPNYATITTKTPSSTLTKTVSFSTPVTVKTPSDKPVTINVPSPEVSAGGSA [r2_57_JUSTAS]	0.303 ± 0.034	0.533 ± 0.12	0.436 ± 0.18
SAGGSSKLTFKDPNSDGTYSVTYDPSTGKANVTTSNGSSATISFEGDTITLLESSSVPPSPSNPTTSSAGGS [r16_687_JUSTAS]	0.123 ± 0.047	0.252 ± 0.093	0.243 ± 0.09
SAGGSSLTTPDGVKVEVYENPENNTIYVFEKKPDGTYTLKTLTKEGDKVTEVSTKTIKSNEKEKLLSAGGSA [r2_336_JUSTAS]	0.966 ± 0.029	1.81 ± 0.081	1.52 ± 0.069
SAGGSSMINLTITITVKDPSTGKVTTIPLNKKLTPEEIEELVKEIIEKIEKENPDKPIEVLKVEINSAGGSA [r2_59_JUSTAS]	3.4 ± 0.21	2.48 ± 0.12	2.81 ± 0.25
SAGGSSMPLEVTEVKKIGDKIVITLRVPPSVGPLSLGLTIELKSKPVTITSTFDPSTTTATIEVGLSAGGSA [r2_261_JUSTAS]	2.88 ± 0.1	3.43 ± 0.18	3.25 ± 0.17
SAGGSSMQTTVFILPGPEVPVEEVKAKIAKELGLDFETVTFIPAPSREEAEALAAALGVDGIIVEVDSAGGS [r8_245_JUSTAS]	2.43 ± 0.053	2.662 ± 0.013	2.58 ± 0.052
SAGGSSMVDIKPGLVTEIRVETLPNGERVYVVEIPLENGERAVVKISEKFKSEEEKLKAIYEAVSKSAGGSA [r2_347_JUSTAS]	1.71 ± 0.05	2.47 ± 0.039	2.24 ± 0.12
SAGGSSPASVRTSQTTVTDPATGRTRSVTVTTLPDGTTVSTFDSPGGSLVTTTTTPDGTTTTVTADSAGGSA [r2_109_JUSTAS]	-0.0855 ± 0.13	1.38 ± 0.022	1.05 ± 0.066
SAGGSSPEELAEKAINEAMEKFGFKEISEIKIQKEDDGVRITIRMPNNGYTIEIDYEDGKITEIQPWSAGGS [r16_171_TrROS]	1.53 ± 0.051	0.23 ± 0.2	1.1 ± 0.083
SAGGSSPLLLTSSPTPLTLPDGGTVTLTTTRVPGDNADVVTITTTPPGTGTTTVTTLPASTAAATLSAGGSA [r2_366_JUSTAS]	1.47 ± 0.034	0.603 ± 0.12	1.15 ± 0.068
SAGGSSPLLSPVTLTREVPASEPMAPEEVEAFAAAVAAEVAAAGMTVDFSVERHPDREVLTVTVTVASSAGG [r13_442_JUSTAS]	-0.372 ± 0.1	0.678 ± 0.046	0.373 ± 0.056
SAGGSSPWLERALEEARELMKNDPPGKEVEAKVKVPYPTPDGQQQPMKFRIRMTYKNNKIKEIEITSAGGSA [r2_173_TrROS]	0.91 ± 0.11	0.518 ± 0.25	0.823 ± 0.17
SAGGSSSLSGLKNVTEEPRLAPDSDEEEVLITYENGYLERREPGVLEFYDPENGKVLSKKNVPYHHSAGGSA [r2_374_JUSTAS]	-0.806 ± 0.35	-0.0765 ± 0.3	-0.326 ± 0.3
SAGGSSSSMVVVTLTFPPDVSPEEVIEKIAATPGVGAQPISYDPATGTFTIRVGSTDPKAVEEVLGSAGGSA [r2_305_JUSTAS]	0.878 ± 0.022	0.562 ± 0.17	0.748 ± 0.074
SAGGSSVLINHTKTFSSEEEAEKEAEELKEKAKKEGFDEVKVEISKDPSGGTYTLKVTIKKKLPPDLKSAGG [r19_92_JUSTAS]	1.96 ± 0.078	3.21 ± 0.072	2.87 ± 0.26

Source: the supplement of paper PMC12764529
